# Test results from patent US20170022287A1 (Chugai, published 2017).
# Changes are numbered by the printed parent chain.
# B1: R6 (antibody, V domains shown)
# VH: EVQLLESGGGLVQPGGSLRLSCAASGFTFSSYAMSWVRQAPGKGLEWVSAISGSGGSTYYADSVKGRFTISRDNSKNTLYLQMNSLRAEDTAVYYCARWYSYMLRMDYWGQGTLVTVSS
# VL: DIQMTQSPSSLSASVGDRVTITCRASQSISSYLNWYQQKPGKAPKLLIYAASSLQSGVPSRFSGSGSGTDFTLTISSLQPEDFATYYCQQFHSFPLTFGGGTKVEIK
# notes: Synthetic library clone; Fab on phage in the phage ELISA
# B2: R7 (antibody, V domains shown)
# VH: QVQLLESGGGLVQPGGSLRLSCAASGFTFSSYAMSWVRQAPGKGLEWVSAISGSGGSTYYADSVKGRFTISRDNSKNTLYLQMNSLRAEDTAVYYCARDRAMYHPSFNYWGQGTLVTVSS
# VL: B1 VL with H92N, F94Y
# notes: as for B1
# B3: M (antibody, human IgG1, lambda, V domains shown)
# VH: EVQLVQSGAEVKKPGESLRISCKGSGYSFSTYWISWVRQMPGKGLEWMGKIYPGDSYTNYSPSFQGQVTISADKSISTAYLQWSSLKASDTAMYYCARGYGIFDYWGQGTLVTVSS
# VL: SYELTQPPSVSVSPGQTASITCSGDNIGDQYAHWYQQKPGQSPVLVIYQDKNRPSGIPERFSGSNSGNTATLTISGTQAMDEADYYCATYTGFGSLAVFGGGTKLTVLQ
# notes: also called Control M
# B4: R5 (antibody, V domains shown)
# VH: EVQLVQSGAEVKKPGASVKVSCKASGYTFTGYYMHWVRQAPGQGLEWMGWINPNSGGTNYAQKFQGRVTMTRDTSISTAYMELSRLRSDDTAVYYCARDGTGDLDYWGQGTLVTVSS
# VL: QSALTQPRSVSGSPGQSVTISCTGTSSDVGVYDYVSWYQQFPGKAPKLMIYDVNKRPSGVPDRFSGSKSGNTASLTVSGLQAEDEADYYCCSYSGTDIRWLFGGGTKLTVL
# notes: Naive library clone; Fab on phage in the phage ELISA
# Columns and labels:
# CRD1-3 [1] = biological target: T1, CRD1-3; experiment: ELISA, coated CD137-Fc protein 2 µg/mL, antibody 10 or 5 µg/mL, absorbance 620 nm; Non (uncoated well) 0.165
# T1 construct: also called fragmented human CD137-Fc fusion protein CRD1-3
# CRD2-3 [2] = biological target: T2, CRD2-3; experiment: as above
# T2 construct: also called fragmented human CD137-Fc fusion protein CRD2-3
# CRD3-4 [3] = biological target: T3, CRD3-4; experiment: as above
# T3 construct: also called fragmented human CD137-Fc fusion protein CRD3-4
# CRD2-4 [4] = biological target: T4, CRD2-4; experiment: as above
# T4 construct: also called fragmented human CD137-Fc fusion protein CRD2-4
# [5] = biological target: full-length human CD137-Fc fusion protein (human); experiment: as above
# CRD1-3 [6] = biological target: T1, CRD1-3; experiment: ELISA, coated CD137-Fc protein 2 µg/mL, antibody 10 or 5 µg/mL; absorbance 620 nm divided by that of the uncoated well
# CRD2-3 [7] = biological target: T2, CRD2-3; experiment: as above
# CRD3-4 [8] = biological target: T3, CRD3-4; experiment: as above
# CRD2-4 [9] = biological target: T4, CRD2-4; experiment: as above
# [10] = biological target: full-length human CD137-Fc fusion protein (human); experiment: as above
# CRD1-3 [11] = biological target: T1, CRD1-3; experiment: ELISA, coated CD137-Fc protein 2 µg/mL, antibody 10 or 5 µg/mL, absorbance 620 nm; Non (uncoated well) 0.4435
# CRD2-3 [12] = biological target: T2, CRD2-3; experiment: as above
# CRD1-2 [13] = biological target: T5, CRD1-2; experiment: as above
# T5 construct: also called fragmented human CD137-Fc fusion protein CRD1-2
# CRD3-4 [14] = biological target: T3, CRD3-4; experiment: as above
# CRD1 [15] = biological target: T6, CRD1; experiment: as above
# T6 construct: also called fragmented human CD137-Fc fusion protein CRD1
# CRD2-4 [16] = biological target: T4, CRD2-4; experiment: as above
# [17] = biological target: full-length human CD137-Fc fusion protein (human); experiment: as above
# CRD1-2 [18] = biological target: T5, CRD1-2; experiment: ELISA, coated CD137-Fc protein 2 µg/mL, antibody 10 or 5 µg/mL; absorbance 620 nm divided by that of the uncoated well
# CRD1 [19] = biological target: T6, CRD1; experiment: as above
# CRD1-2 [20] = biological target: T5, CRD1-2; experiment: ELISA, coated CD137-Fc protein 2 µg/mL, antibody 10 or 5 µg/mL, absorbance 620 nm; Non (uncoated well) 0.055
# Method: (§1) Fragmented human CD137-Fc fusion proteins were diluted to 2 μg/mL in an aqueous sodium carbonate solution adjusted to pH9.6. Fifty μL of a diluted fragmented human CD137-Fc fusion protein was added individually to each well of a Nunc MaxiSorp flat-bottom 96 well plate (Nunc). This was allowed to stand at 4° C. overnight or longer, and then the plate was allowed to stand at room temperature for one hour so that the plate has the same temperature as the room temperature. The solution containing the fragmented human CD137-Fc fusion protein was removed by tilting, and each well was washed three times with 300 μL of Wash buffer (TBS containing 0.1% Tween20, TaKaRa). Next, 150 μL of blocking buffer (TBS containing 2% BSA) was added to each well, and this was allowed to stand for one hour or more. The blocking buffer was removed by tilting, and each well was washed three times with Wash Buffer in a similar manner to an earlier step. Then, 50 μL of an antibody solution prepared in advance by dilution with TBS to 10 μg/mL or 5 μg/mL was added to each well. This was subjected to a speed of 600 rpm or so for one hour at room temperature to bind the antibody to the immobilized antigen. […] 100 μL of a secondary antibody solution produced by 1000-fold dilution with TBS containing 0.1% Tween20 was added to each well. For the secondary antibody, ANTIBODY ALKALINE PHOSPHATASE CONJUGATE HUMAN IMMUNOGLOBULIN ABSORBED Goat Anti-Human Kappa Alkaline Phosphate from BIOSOURCE was used in the case of antibodies carrying a Kappa chain, and Human Lambda Light Chain Antibody; Goat anti-Human Lambda Light Chain Antibody Alkaline Phosphatase Conjugated from BETHYL LABORATORIES INC. was used in the case of antibodies carrying a Lambda chain. […] Color development was performed using the BluePhos Microwell kit from KPL. After the chromogenic reaction was stopped using the AP stop solution from KPL, the absorbance was measured at 620 nm on an absorptiometer.
# CRD3-4 [21] = biological target: T3, CRD3-4; experiment: as above
# Method: as §1
# CRD1 [22] = biological target: T6, CRD1; experiment: as above
# Method: as §1
# CRD1-3 [23] = biological target: T1, CRD1-3; experiment: ELISA, coated CD137-Fc protein 2 µg/mL, antibody 10 or 5 µg/mL, absorbance 620 nm; Non (uncoated well) 0.216
# CRD2-3 [24] = biological target: T2, CRD2-3; experiment: as above
# CRD1-2 [25] = biological target: T5, CRD1-2; experiment: as above
# CRD3-4 [26] = biological target: T3, CRD3-4; experiment: as above
# CRD1 [27] = biological target: T6, CRD1; experiment: as above
# CRD2-4 [28] = biological target: T4, CRD2-4; experiment: as above
# [29] = biological target: full-length human CD137-Fc fusion protein (human); experiment: as above
# T4 sequence (chain, as listed by the source limits assumed): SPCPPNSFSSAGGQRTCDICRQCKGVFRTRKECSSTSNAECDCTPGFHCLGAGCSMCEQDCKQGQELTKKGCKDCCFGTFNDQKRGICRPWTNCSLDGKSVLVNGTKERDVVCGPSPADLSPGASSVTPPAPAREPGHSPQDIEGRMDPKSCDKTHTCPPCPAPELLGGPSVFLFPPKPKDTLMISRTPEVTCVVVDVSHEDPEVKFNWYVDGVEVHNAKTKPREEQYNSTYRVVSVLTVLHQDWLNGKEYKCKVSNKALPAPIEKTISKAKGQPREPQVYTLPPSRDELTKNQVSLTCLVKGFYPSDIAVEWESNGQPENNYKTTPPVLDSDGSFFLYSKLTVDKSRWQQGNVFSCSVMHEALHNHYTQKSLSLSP
# T1 sequence (chain, as listed by the source limits assumed): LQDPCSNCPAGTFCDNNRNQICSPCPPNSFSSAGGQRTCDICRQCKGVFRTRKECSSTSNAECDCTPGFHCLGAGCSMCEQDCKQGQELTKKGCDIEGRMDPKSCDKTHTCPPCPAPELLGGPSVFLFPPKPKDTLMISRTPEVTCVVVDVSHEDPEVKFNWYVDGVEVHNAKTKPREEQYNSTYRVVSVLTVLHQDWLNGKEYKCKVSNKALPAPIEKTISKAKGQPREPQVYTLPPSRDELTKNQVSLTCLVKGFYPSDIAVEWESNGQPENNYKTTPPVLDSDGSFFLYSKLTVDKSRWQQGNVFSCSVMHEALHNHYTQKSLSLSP
# full-length human CD137-Fc fusion protein (human), sequence (chain, as listed by the source limits assumed): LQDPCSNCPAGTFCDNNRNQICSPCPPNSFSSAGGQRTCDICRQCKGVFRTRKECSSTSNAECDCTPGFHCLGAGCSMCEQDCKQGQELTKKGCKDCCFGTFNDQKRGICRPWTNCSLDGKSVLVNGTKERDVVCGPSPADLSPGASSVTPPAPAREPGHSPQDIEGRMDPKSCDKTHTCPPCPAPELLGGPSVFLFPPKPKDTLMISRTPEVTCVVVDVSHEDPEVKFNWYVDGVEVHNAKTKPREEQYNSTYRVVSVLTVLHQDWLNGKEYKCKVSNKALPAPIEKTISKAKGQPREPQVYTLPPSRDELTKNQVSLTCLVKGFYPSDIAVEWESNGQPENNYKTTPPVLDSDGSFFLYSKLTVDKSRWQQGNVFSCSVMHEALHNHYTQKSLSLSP
# T2 sequence (chain, as listed by the source limits assumed): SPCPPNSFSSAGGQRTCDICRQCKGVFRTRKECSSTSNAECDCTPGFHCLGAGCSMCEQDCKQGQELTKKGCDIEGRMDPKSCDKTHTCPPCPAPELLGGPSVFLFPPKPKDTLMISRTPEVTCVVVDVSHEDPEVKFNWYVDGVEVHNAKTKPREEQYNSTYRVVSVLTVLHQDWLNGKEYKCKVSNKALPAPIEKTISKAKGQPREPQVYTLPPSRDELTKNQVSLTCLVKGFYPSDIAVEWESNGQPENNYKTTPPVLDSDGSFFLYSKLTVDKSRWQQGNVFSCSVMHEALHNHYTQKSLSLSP
# T3 sequence (chain, as listed by the source limits assumed): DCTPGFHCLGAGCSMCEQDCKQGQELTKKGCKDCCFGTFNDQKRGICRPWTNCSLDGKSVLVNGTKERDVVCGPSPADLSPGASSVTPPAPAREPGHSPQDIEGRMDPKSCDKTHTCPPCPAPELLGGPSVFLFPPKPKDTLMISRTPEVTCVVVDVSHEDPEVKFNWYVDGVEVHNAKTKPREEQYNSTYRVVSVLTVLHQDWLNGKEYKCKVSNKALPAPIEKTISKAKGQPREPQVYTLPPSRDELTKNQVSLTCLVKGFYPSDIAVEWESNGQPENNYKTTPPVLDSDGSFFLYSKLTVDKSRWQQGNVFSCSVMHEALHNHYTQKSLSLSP
# T6 sequence (chain, as listed by the source limits assumed): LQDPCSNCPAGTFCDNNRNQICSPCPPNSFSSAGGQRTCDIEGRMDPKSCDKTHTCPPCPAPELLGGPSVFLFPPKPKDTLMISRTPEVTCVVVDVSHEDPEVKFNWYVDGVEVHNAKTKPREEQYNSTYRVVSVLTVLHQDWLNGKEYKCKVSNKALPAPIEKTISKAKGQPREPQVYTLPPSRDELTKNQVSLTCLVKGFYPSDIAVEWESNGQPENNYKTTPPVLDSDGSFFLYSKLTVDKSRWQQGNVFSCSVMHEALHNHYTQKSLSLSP
# T5 sequence (chain, as listed by the source limits assumed): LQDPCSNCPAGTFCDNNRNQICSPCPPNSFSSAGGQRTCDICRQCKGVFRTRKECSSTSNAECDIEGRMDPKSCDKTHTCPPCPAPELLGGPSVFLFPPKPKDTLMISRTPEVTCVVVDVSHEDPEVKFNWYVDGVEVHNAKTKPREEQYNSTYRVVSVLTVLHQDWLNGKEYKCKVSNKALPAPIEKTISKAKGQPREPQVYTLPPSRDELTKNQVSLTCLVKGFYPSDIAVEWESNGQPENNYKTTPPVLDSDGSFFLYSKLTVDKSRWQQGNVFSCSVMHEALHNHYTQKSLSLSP
binder,measurement,setting,value
B1,ELISA color development level,CRD1-3 [1],2.3
same,ELISA color development level,CRD2-3 [2],2.56
same,ELISA color development level,CRD3-4 [3],2.73
same,ELISA color development level,CRD2-4 [4],2.34
same,ELISA color development level,[5],2.16
same,Ratio with respect to Non-Coating,CRD1-3 [6],13.9
same,Ratio with respect to Non-Coating,CRD2-3 [7],15.5
same,Ratio with respect to Non-Coating,CRD3-4 [8],16.6
same,Ratio with respect to Non-Coating,CRD2-4 [9],14.2
same,Ratio with respect to Non-Coating,[10],13.1
B2,ELISA color development level,CRD1-3 [11],2.23
same,ELISA color development level,CRD2-3 [12],2.52
same,ELISA color development level,CRD1-2 [13],0.814
same,ELISA color development level,CRD3-4 [14],2.63
same,ELISA color development level,CRD1 [15],0.61
same,ELISA color development level,CRD2-4 [16],2.19
same,ELISA color development level,[17],1.92
same,Ratio with respect to Non-Coating,CRD1-3 [6],5
same,Ratio with respect to Non-Coating,CRD2-3 [7],5.7
same,Ratio with respect to Non-Coating,CRD1-2 [18],1.8
same,Ratio with respect to Non-Coating,CRD3-4 [8],5.9
same,Ratio with respect to Non-Coating,CRD1 [19],1.4
same,Ratio with respect to Non-Coating,CRD2-4 [9],4.9
same,Ratio with respect to Non-Coating,[10],4.3
B3,ELISA color development level,CRD1-2 [20],0.085
same,ELISA color development level,CRD3-4 [21],2.26
same,ELISA color development level,CRD1 [22],0.093
same,Ratio with respect to Non-Coating,CRD3-4 [8],41.1
B4,ELISA color development level,CRD1-3 [23],1.36
same,ELISA color development level,CRD2-3 [24],0.274
same,ELISA color development level,CRD1-2 [25],1.7
same,ELISA color development level,CRD3-4 [26],0.161
same,ELISA color development level,CRD1 [27],0.278
same,ELISA color development level,CRD2-4 [28],0.25
same,ELISA color development level,[29],1.88
same,Ratio with respect to Non-Coating,CRD1-3 [6],6.3
same,Ratio with respect to Non-Coating,CRD2-3 [7],1.3
same,Ratio with respect to Non-Coating,CRD1-2 [18],7.9
same,Ratio with respect to Non-Coating,CRD3-4 [8],0.7
same,Ratio with respect to Non-Coating,CRD1 [19],1.3
same,Ratio with respect to Non-Coating,CRD2-4 [9],1.2
same,Ratio with respect to Non-Coating,[10],8.7
